Results on nine compounds are retold here after US7422883B2, “Map kinase integrin-binding domain” (Inter-K Pty Limited, priority 2000, dated 2008).

No end group written: not given here. *: point of attachment. Biotin = O=C1N[C@H]2[C@H](CS[C@H]2CCCCC(=O)*)N1

In assay [1] the test system is MAP kinase activity in WiDr wild-type cells. In words: MAP kinase assay, serum-stimulated WiDr cells. Type of assay: cell-based, human. As to conditions: inhibitors 40 μM added one hour before serum, serum 30 min. The procedure:
(§1) Cultures of WiDr and HT29 mock and antisense β6 transfectants were established by seeding 1×10^6 cells/5 ml of culture medium in 25 cm^2 tissue culture flasks. Cells were incubated at 37° C. in humidified CO2 for 24 hours before serum starvation in serum-free medium for the next 16 hours. Foetal calf serum was then added to a final concentration of 10% for 30 mins before MAP kinase assays were performed. […] The ability of cells to transfer phosphate from [γ^32P]-ATP to a synthetic peptide that contains specifically a p42/p44 MAP kinase phosphorylation site was measured as described in the manufacturer's instructions. [^32P]-labelled peptides were spotted onto PEI-cellulose paper, unbound radioactivity was washed with 75 mM phosphoric acid and bound [^32P]-labelled peptides were measured by liquid scintillation counting. Protein estimation was performed on each cell lysate used and enzyme activity calculated as described in the manufacturer's instructions. […]
(§2) The effect of MEK (MAP kinase) inhibitors UO126 and PD98059 on MAP kinase activity in WiDr and HT29 wild-type cells was tested in the absence/presence of serum. […] Serum was then added for 30 min and MAP kinase activity assessed before and after addition of serum. […]

Assay [2] has as its system gelatinase B secretion by SW480 β6 transfectants. In words: Gelatinase B secretion, gelatin zymogram of tumour-conditioned medium. The note with it: 40 μM, serum-free, 48 hours, versus DMSO control. Type of assay: cell-based, human. Here is the method: SW480 β6 transfectants were cultured under serum-free conditions for 48 hours in the absence/presence of the MEK inhibitor PD98059 (40 μM) or DMSO (vehicle control). Tumour-conditioned medium was assayed for gelatinase B by analysis of equal protein loads in a gelatin zymogram.

For assay [3], the system named is MAP kinase activity in HT29 wild-type cells. Kind of assay: MAP kinase assay, serum-stimulated HT29 cells. Type of assay: cell-based, human. As to conditions: inhibitors 40 μM added one hour before serum, serum 30 min. Here is the method: as §1, §2
A further assay deals with T1, ERK2 (Mus musculus, UniProt P63085).
T1 construct: GST (glutathione-S-transferase); made in house
Kind of assay: ELISA of ERK2 binding to biotinylated integrin cytoplasmic domain peptides. As to conditions: for binding of peptide to ERK2: ERK2 (1 μm), FIG. 35C; for binding of ERK2 to integrin subunit peptides: corrected for non-specific binding, FIG. 34; for binding of ERK2 to peptide: ERK2 cleaved from GST-ERK2 by thrombin, FIG. 23; for binding of non-phosphorylated ERK2 to peptide: over a range of concentrations of ERK2, FIG. 18. The procedure: Peptide fragments corresponding to regions of the cytoplasmic tail domain of the β6 subunit were screened in an enzyme-linked immunosorbent assay (ELISA) for binding with ERK2. The 52 amino acid long β6 cytoplasmic tail is shown in FIG. 16 as are the amino acid sequences for the cytoplasmic domains of the β1 to β3 subunits. In particular, four synthetic peptides designated fragment 1 to fragment 4 were prepared and biotinylated at the N-terminal end of each, respectively (Auspep Pty Ltd, Melbourne Australia).
(§3) Overlapping biotinylated fragments 1 to 4 were coated onto streptavidin coated polystyrene plates (Pierce, Rockford Ill. USA, Cat No. 15125) and the ELISA performed substantially according to manufacturers instructions. Briefly, wells are washed with 3×200 μl of wash buffer (TBS, 0.1% BSA, 0.05% Tween 20 or SuperBlock™ blocking buffer in TBS, Pierce, Prod. No. 37535) prior to addition of biotinylated peptides (100 μl) and incubation for 1 hr at room temperature to allow for capture of the peptides on the plate. Following another washing step, peptides were overlayed with GST-ERK, ERK (or JNK-1) alone at a volume of 100 μl per well, and the plates incubated for a further 1 hr at room temperature before removal of any unbound ERK by further washing.
Binding of ERK to the peptides is detected using 100 μl anti-ERK1/2 mAb SC1647 (Santa Cruz) as the primary antibody at a dilution of 1:700 (isotype matched antibody IgG2b is used as a control). This is followed by another washing step and addition of 100 μl rabbit anti-mouse antibody (Biorad) conjugated to alkaline phosphatase at a concentration of 1:1000 for 30 minutes again at room temperature. A […] of detection reagent (alkaline phosphatase detection kit-Biorad) is then introduced into each well after a final washing step and allowed to react for 15-30 minutes at room temperature in the dark before absorbance is measured at 405 nm. All dilutions of peptides, MAP kinase and antibodies were performed using the wash buffer. GST-ERK is a fusion protein consisting of ERK coupled to glutathione-S-transferase and purified from host cells transfected with pGEX vector.
To further localise the binding domain on the cytoplasmic tail of the β6 subunit, progressively shorter peptides from the region of the β6 cytoplasmic tail corresponding to peptide fragment 2 were synthesised, biotinylated and the capacity to associate or otherwise bind to ERK2 assessed as described above. The binding of GST.ERK2 to a 15 mer test peptide (seq. 4) having the amino acid sequence RSKAKWQTGTNPLYR (SEQ ID NO: 7) and a 10 mer test peptide having the sequence RSKAKWQTGT (SEQ ID NO: 21) is shown in FIG. 20 compared to fragment 2 over a range of concentrations of the peptides. […] 4 peptide compared to fragment 2 was found. Binding of ERK2 to the seq. 3 peptide was substantially less than that observed for seq. 4.
Binding of ERK2 to the seq.4 peptide (RSKAKWQTGTNPLYR) (SEQ ID NO: 7) was compared with peptides corresponding to regions of the cytoplasmic domain of integrin subunits β1, β2, β3 and β5. The amino acid sequences for those peptides is shown below:
To evaluate this, cell lysates containing equal protein loads were prepared from SW480 wild-type cells and SW480 cells transfected with either vector alone (mock transfectants), wild type β6 or the β6 deletion mutant Δ746-764 (lacking the sequence EAERSKAKWQTGTNPLYRG (SEQ ID NO: 26), Cone et al, 1994). The lysates were immunoprecipitated with mAbs R6G9 (anti-β6), P1F6 (anti-β5) or murine IgG control antibody (mlgG). […] To determine whether β5 can bind ERK2 in vitro, a 15-mer peptide fragment derived from the β5 cytoplasmic domain corresponding to the ERK binding domain on β6 was tested for its ability to bind ERK2 in an ELISA.
In general terms: An ELISA detects its analyte on a solid surface through an enzyme-linked reagent.

For the next assay, the target named is T2, JNK-1 (Homo sapiens, UniProt P45983).
T2 construct: purchased Santa Cruz
In words: ELISA of JNK-1 binding to β6 cytoplasmic tail peptide. The note with it: JNK-1 0.05-1.5 μm/100 μl; FIG. 24. The procedure: as §3
Briefly, 0.05-1.5 μm/100 μl of JNK-1 (Santa Cruz) was aliquoted into wells of a 96 well culture place containing increasing concentrations of the β6 cytoplasmic domain tail peptide used in Example 3. For comparison purposes, non-phosphorylated GST-ERK2 (0.05-1.5 μm/100 μl) was aliquoted into wells containing β6 cytoplasmic tail peptide or peptide fragments 1 or 2, respectively. Binding of JNK-1 was detected using mouse anti-JNK-1 mAb SC 474-G (Santa Cruz) and HRP-conjugated goat anti-mouse antibody.

A further assay concerns β6-ERK2 interaction. Kind of assay: ERK2 peptide competition ELISA for β6-ERK2 binding. The note with it: increasing concentrations incubated with ERK2. Here is the method:
To determine the β6-binding domain(s) of ERK2, a biotinylated β6 cytoplasmic tail peptide spanning the cytoplasmic tail of β6 was incubated with a soluble ERK2 peptide fragment in a total incubation volume of 20 μl phosphate buffered saline (PBS). The mixture was stood for 45 minutes at room temperature (RT). Soluble ERK2 in PBS was then added and the solution left for a further 30 minutes. Following incubation the reaction volume was made to 400 μl with carbonate buffer (0.015 M Na2CO3 and 0.035M NaHCO3 at pH 9.6) and 100 μl of this mixture added to each of 4 wells of a polystyrene ELISA plate (Nunc, Maxicorp). ERK2/peptides were allowed to attach to the plastic substrate for 18 to 20 hours at RT in the dark. After immobilisation the overlying buffer was flicked from the wells and excess solid surface blocked with casein (0.5% skim milk) in PBS for 60 minutes at RT. Wells were washed (×3) with was buffer (PBS plus 0.5% skim milk powder, 0.05% Tween-20) prior to incubation with the anti-β6 antibody SC-6632 (Santa Cruz) diluted 1:500 v/v in wash buffer (2 wells) or a control antibody (2 wells). Incubation with the primary antibody was carried out for 30 minutes at RT. […] Specific binding events were quantitatively determined using a colourimetric substrate system by measuring absorbency at […] (Bio-Rad, AP substrate kit). […]

T1 sequence (P63085 whole entry): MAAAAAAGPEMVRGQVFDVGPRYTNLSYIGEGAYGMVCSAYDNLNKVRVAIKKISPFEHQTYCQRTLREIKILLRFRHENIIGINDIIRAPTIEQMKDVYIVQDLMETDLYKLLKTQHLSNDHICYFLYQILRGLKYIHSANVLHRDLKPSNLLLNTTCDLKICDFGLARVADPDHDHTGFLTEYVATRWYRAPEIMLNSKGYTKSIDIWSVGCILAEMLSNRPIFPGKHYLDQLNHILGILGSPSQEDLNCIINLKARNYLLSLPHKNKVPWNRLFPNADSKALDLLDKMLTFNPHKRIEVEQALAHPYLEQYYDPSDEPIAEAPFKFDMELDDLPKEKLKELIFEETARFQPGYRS
T2 sequence (P45983 whole entry, species assumed): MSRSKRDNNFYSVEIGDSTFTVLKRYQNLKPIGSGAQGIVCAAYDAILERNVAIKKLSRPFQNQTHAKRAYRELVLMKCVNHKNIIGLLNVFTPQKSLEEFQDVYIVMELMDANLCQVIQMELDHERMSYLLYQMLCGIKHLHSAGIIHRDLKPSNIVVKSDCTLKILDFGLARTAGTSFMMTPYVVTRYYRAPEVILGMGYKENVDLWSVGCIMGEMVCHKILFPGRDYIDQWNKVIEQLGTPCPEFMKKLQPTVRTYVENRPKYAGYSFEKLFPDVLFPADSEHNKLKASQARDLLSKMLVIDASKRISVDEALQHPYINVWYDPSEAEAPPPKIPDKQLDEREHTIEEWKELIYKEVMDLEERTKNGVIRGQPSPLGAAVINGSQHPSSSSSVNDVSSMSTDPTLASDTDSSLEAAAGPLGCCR

As to `COc1cccc(-c2cc(=O)c3ccccc3o2)c1N` [PD98059], the “serum-stimulated MAP kinase activity” value in assay [1] and in assay [3] was “inhibitable” each time. Moreover, in assay [2], the “gelatinase B secretion” value was “reduced gelatinase B secretion compared with controls”. With “KFEKEKMNAKWDTGENPIYK [β1, peptide of the β1 cytoplasmic domain]”, the “binding of peptide to ERK2” value with ERK2 is “failed to bind ERK2”. As for “RARAKWDTANNPLYK [β3, peptide of the β3 cytoplasmic domain]”, the “binding of ERK2 to integrin subunit peptides” value with ERK2 is “Binding of ERK2 to the β5 and β3 peptides was also found”. For the compound “RSKAK (also: biotinylated, site not given here) [5 mer peptide]”, the “binding of ERK2 to peptide” value with ERK2 is listed as “Negligible binding”. On the same count and under the same terms, to RSKAKNPLYR [10(4), 4 is omitted] belongs “Comparable binding of ERK2 to seq. 4”. Turning to “RSKAKWQTGT (also: biotinylated, site not given here) [seq. 3, 10 mer test peptide of the β6 cytoplasmic tail]”, the “binding of GST.ERK2 to peptide” value with ERK2 (over a range of concentrations of the peptides, compared to fragment 2, FIG. 20) is given as “substantially less than that observed for seq. 4”. Regarding “RSKAKWQTGTNPLYRGSTST (Biotin-RSKAKWQTGTNPLYRGSTST) [fragment 2, biotinylated peptide of the β6 cytoplasmic tail]”, the “binding of non-phosphorylated GST.ERK2 to peptide” value with ERK2 (GST.ERK2 0.25 μg/100 μl, peptide 1 μg/100 μl, FIG. 17) is on record as “significant binding”. The “binding of non-phosphorylated ERK2 to peptide” value with ERK2 is “Significant binding”. Turning to “RSRARYEMASNPLYR [β5, 15-mer peptide of the β5 cytoplasmic domain]”, in the assay with ERK2, the “binding of peptide to ERK2” value was “Dose-dependant binding”; the “binding of ERK2 to integrin subunit peptides” value was “Binding of ERK2 to the β5 and β3 peptides was also found”. With “β6 cytoplasmic tail peptide: peptide spanning the 52 amino acid long β6 cytoplasmic tail (HDRKEVAKFEAERSKAKWQTGTNPLYRGSTSTFKNVTYKHREKQKVDLSTDS)”, the “binding of JNK-1 to peptide” value with JNK-1 was “Significant binding”. For the same compound, the “concentration at which maximal β6 bound to ERK was detected” value in the assay with β6-ERK2 interaction worked out at 0.25 µM. The “binding of non-phosphorylated ERK2 to peptide” value in the assay with ERK2 is recorded as “Significant binding”.
